The text below walks through data of paper PMC8629194.

This test has as its target wt ACE2_(740)-Fc (M31) (human) (UniProt Q9BYF1). As to the kind of experiment: SPR. (In general: Surface plasmon resonance follows binding to a sensor surface in real time, without labels.)

Sequence of wt ACE2_(740)-Fc (M31) (human) (Q9BYF1 18-740): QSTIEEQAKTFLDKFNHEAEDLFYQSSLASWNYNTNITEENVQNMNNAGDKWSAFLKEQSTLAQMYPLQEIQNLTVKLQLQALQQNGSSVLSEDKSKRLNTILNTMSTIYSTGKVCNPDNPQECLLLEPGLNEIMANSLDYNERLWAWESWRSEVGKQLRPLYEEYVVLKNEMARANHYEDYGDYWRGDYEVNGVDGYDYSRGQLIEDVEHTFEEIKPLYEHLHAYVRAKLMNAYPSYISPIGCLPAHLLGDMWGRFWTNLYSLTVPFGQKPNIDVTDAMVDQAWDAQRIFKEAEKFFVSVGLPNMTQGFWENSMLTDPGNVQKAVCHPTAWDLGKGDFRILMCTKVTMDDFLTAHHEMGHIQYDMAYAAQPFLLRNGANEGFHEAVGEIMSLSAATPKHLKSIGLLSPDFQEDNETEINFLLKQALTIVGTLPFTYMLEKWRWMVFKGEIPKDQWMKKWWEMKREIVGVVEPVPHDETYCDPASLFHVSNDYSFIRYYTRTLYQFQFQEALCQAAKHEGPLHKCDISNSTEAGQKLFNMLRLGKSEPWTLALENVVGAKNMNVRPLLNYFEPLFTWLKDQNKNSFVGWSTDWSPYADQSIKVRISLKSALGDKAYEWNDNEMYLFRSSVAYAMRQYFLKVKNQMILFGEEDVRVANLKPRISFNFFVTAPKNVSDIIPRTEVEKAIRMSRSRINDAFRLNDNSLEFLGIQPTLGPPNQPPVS

The substance “SARS-CoV-2 RBDwt (residue 319–541) (from UniProt P0DTC2 319-541) (domain or fragment; other documents disagree on this pair)” gave a Kd of 0.0139 µM.

The Kd is the constant that tells how readily two partners part at equilibrium. High values mean lower affinity, low ones higher affinity.
